Source: article PMC2328253

Biological target: T1, His-RosE (Salmonella enterica serotype Typhimurium) (UniProt Q8ZK37)
T1 sequence: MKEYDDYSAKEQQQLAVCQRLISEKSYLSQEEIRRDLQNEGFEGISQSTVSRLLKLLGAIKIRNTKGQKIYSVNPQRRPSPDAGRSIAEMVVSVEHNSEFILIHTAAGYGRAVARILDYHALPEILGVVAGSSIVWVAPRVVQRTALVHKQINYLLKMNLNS
Assay: EMSA

## TAAAAAGTATTTCTTTGATGATTATTCTTAAATTACGATCATAATCATCGATCGTATCGATCTATTTTTATTGTTTTAATTTGAATAAGAATTTTCTTACAACTGATTAGGCATTAGCTGAAATCAATATTTTTCGATGGAAAGTTCAGG (double strand) [stdA upstream region 1]
  binding: no binding
